Assay results as given in paper PMC8051608, “Overexpression of GmMYB14 improves high‐density yield and drought tolerance of soybean through regulating plant architecture mediated by the brassinosteroid pathway”.

Biological target: T1, GmMYB14 (Glycine max cv. Tianlong No. 1, UniProt K7MYP5 1-291)
T1 sequence: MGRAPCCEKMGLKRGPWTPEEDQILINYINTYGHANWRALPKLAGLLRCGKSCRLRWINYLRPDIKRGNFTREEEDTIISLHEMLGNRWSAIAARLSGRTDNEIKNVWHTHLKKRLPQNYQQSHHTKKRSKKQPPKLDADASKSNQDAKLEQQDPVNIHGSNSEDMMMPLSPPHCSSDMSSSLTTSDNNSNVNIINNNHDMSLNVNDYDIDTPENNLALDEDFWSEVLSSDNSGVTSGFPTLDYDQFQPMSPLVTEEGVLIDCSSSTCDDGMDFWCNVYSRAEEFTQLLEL
Test: EMSA; 100x cold probe competition tested; EMSA Kit (Thermo Fisher), non-denaturing 6% polyacrylamide gel, streptavidin-HRP/ECL detection; buffer, salt, pH and temperature not stated
Details: protein: recombinant; tags: His (pCzn1-His vector); label: biotin; annealed complementary oligos

B1: GmBEN1 promoter AC element 1 probe (30 bp) (dsDNA)
DNA 1: TAATACACCAAGCCACCTACCTTGTCTCTTT
DNA 2: AAAGAGACAAGGTAGGTGGCTTGGTGTATTA
- binding result: binds
